Experimental data published in patent US12324447B2, “Animal feed compositions and uses thereof” (priority 2015, dated 2025).
“Also recorded” adds a separate entry of the source. Where two headings read alike, the source gives them in different places.

B1: SEQ ID NO: 306: mature GH24 lysozyme from Ilyonectria rufa (protein, listed as Ilyonectria rufa)
chain: YKITGDNVNCRSGPGTSYSVKRSFKKGTDVTLSCQTTGENVLGTSIWDKTSYGCYVSDYYVKTGSSGFVVKKCGTCGAPKSNAATVNLISDFEGFRANIYKDAAGYPTVGYGHLCSNSRCTDVPYSIPLSKANGKNLLATDMTKFEKCITAMVSSSVTLNKNQYGALVSWAFNMGCGATKTSTLIKRLNQGQNVNTVLSTELPKWVYAGGKKLNGLVRRRNAEIALAKKKTTEKALPNKC
modifications: mat_peptide (1)..(240)
notes: mature GH24 lysozyme from Ilyonectria rufa
B2: SEQ ID NO: 267: mature GH24 lysozyme from Trichoderma harzianum, comprising LED (protein, listed as Trichoderma harzianum)
chain: YPITGDVVNCRTGPGTSYAIKKSYKKNQDISISCQTAGTSVNGNSIWDKTADGCYVADYYVKTGSSGYVTKKCTASSGGGSSSSYCKTINSAGVDLIAKWEGFVASPKPDPIGLPTVGYGHLCQQKNCREVKYKFPLTKTTAKELLLDDLPKYTKCLADYLNDKPKLNANQWAALTSWVFNVGCGNAKTSTLVKRLNNGEAANTVAAEELPKWRMAGGKVLPGLEARRKDEVKLFKTASSKQAYPKCQ
modifications: mat_peptide (1)..(248)
notes: mature GH24 lysozyme from Trichoderma harzianum, comprising LED
B3: SEQ ID NO: 280: mature GH24 lysozyme from Acremonium alcalophilum, mature sequence of SEQ ID NO: 6 of WO 2013/076259; no LED (protein, listed as Acremonium alcalophilum)
chain: QCVGPAINSAALNLIKEFEGWRPNIYRDPVGLPTVGYGHLCRDSSCSDVPYPIPLSVANGERLLRSDLATASSVVLNANQYGALVSWAFNVGCGATSTSTLIRRLNAGESPNTVAAQELPRWNKAGGQVLPGLVRRRAAEVELHRTSTSVRALPACS
modifications: mat_peptide (1)..(157)
notes: no LED
B4: SEQ ID NO: 264: mature GH24 lysozyme from Chaetomium thermophilum, comprising LED (protein, listed as Chaetomium thermophilum)
chain: PASAYAITGDNVNCRSGPGTSYAVKKVYKKGTDVKISCQTTGTNINGNNLWDKTSDGCYVSDYYVKTGSNGYVTSKCSSSGGSTCAAPKSNQATVDLIAEFEGFRANIYTDAAGYATVGYGHKCQKAKCAEVKYKIPLSKADGKKLLADDMRSFEVCITNMLNSKAKLNYNQFGALVSWSFNVGCGAAKSSTLIKRLNNGENVNKVLSEELPKWNKAGGKVLQGLVRRRAAEVALAKKSGSSQALPVKC
modifications: mat_peptide (1)..(249)
notes: mature GH24 lysozyme from Chaetomium thermophilum, comprising LED
B5: SEQ ID NO: 303: mature GH24 lysozyme from Geomyces auratus (protein, listed as Geomyces auratus)
chain: AFPITGSTVNCRTGPGTSHGVKTSYKKGHEVTVSCQTGGTSVNGNSIWDKTSDGCYVADYYVKTGSSGYVKPKCGSSSGGGGGSSCGAPKSNAATVNLIAEFEGFVSHVYTDATGHPTVGYGHLCSNSKCSGIGYSIPISKANAKKLLAKDMAIAEKCITAMINKSRTLNLNQYGALVSWAFNEGCGAAKSSTLIKRINNGEKPSTVIPQELPKWVYGGSSVLPGLVRRRNAEIALAKKATSSKALPAHC
modifications: mat_peptide (1)..(250)
notes: mature GH24 lysozyme from Geomyces auratus
B6: SEQ ID NO: 273: mature LED (lysozyme enhancing domain) from Trichophaea saccata (protein)
chain: YPVKTDLHCRSSPSTSASIVRTYSSGTEVQIQCQTTGTSVQGSNVWDKTQHGCYVADYYVKTGHSGIFTTKCG
modifications: mat_peptide (1)..(73)
notes: mature LED (lysozyme enhancing domain) from Trichophaea saccata

What was measured:
[1] = tested on: Exiguobacterium undea (DSM14481); assay: Lysozyme activity turbidity assay (optical density drop at 540 nm); assay type: biochemical, Exiguobacterium undae; conditions: for Lysozyme activity against Exiguobacterium undea (in words): OD drop assay
[2] = tested on: Micrococcus lysodeikticus ATTC No. 4698; assay: as above; conditions: for Lysozyme activity against Micrococcus lysodeikticus (in words): OD drop assay
[3] = tested on: Clostridium perfringens DSM756; assay type: cell-based; conditions: for Diameter of clearing zone (mm): lysozymes 100 μg/ml, Bacitracin zinc salt 50 μg/ml; for Antimicrobial activity against Clostridium perfringens (in words): RDA
[4] = Binding of LED to Avicel suspension (SDS gel of supernatant); conditions: for Binding of LED protein to crystalline cellulose (in words): 25 mM Na-Acetate, pH 4.5, 25 mM NaCl
[5] = tested on: Micrococcus lysodeiktikus ATCC No. 4698 cells; assay: Binding of LED to M. lysodeiktikus suspension (SDS gel of supernatant); conditions: for Binding of LED protein to M. lysodiektikus cells (in words): 25 mM Na-Acetate, pH 4.5, 25 mM NaCl
[6] = tested conditions (1/10 MHB pH 7 and 1/2 MHB pH 6)

Row | Molecule | Lysozyme activity against Exiguobacterium undea (in words) [1] | Lysozyme Activity against Exiguobacterium undae as measured by Optical Density Drop ([1]; assay pH 6 (Table 14)) | Lysozyme activity against Micrococcus lysodeikticus (in words) [2] | Lysozyme Activity against Micrococcus lysodeikticus as measured by Optical Density Drop ([2]; assay pH 6 (Table 14)) | Diameter of clearing zone (mm) ([3]; Experiment 1, 1/2 MHB pH 6) | Diameter of clearing zone (mm) ([3]; Experiment 1, 1/10 MHB pH 7) | Diameter of clearing zone (mm) ([3]; Experiment 2, 1/10 MHB pH 7) | Antimicrobial activity against Clostridium perfringens (in words) ([3]; 50% MHB, pH 6) | Antimicrobial activity against Clostridium perfringens (in words) [3, 6] | also measured
1 | B1 | good activity | ++++ | good activity | ++ |  |  |  |  |  | 
2 | B2 | good activity | ++++ | good activity | +++ | 12 mm | 10 mm | 8 mm | significant activity | showed antimicrobial activity | 
3 | B3 |  |  | small amount of activity |  | 0 mm | 0 mm | 0 mm |  | do not have any activity; also recorded: did not inhibit growth | Lysozyme Activity against Exiguobacterium undae as measured by Optical Density Drop ([1]; assay pH 3-7): −; Lysozyme Activity against Micrococcus lysodeikticus as measured by Optical Density Drop ([2]; assay pH 4.5): +
4 | B4 | good activity |  | good activity |  | 10 mm | 9 mm | 7 mm | significant activity | showed antimicrobial activity | Lysozyme Activity against Exiguobacterium undae as measured by Optical Density Drop ([1]; assay pH 6): ++++; Lysozyme Activity against Micrococcus lysodeikticus as measured by Optical Density Drop ([2]; assay pH 5): ++++
5 | B5 | good activity | ++++ | good activity | +++ |  |  |  |  |  | 
6 | B6 |  |  |  |  |  |  |  |  |  | Binding of LED protein to crystalline cellulose (in words) [4]: did not bind; Binding of LED protein to crystalline cellulose (in words) ([4]; listed as LED protein): could not bind; Result: LED band intensity on an SDS gel (supernatant after incubation) ([4]; Suspension: Avicel, 30 minutes room temperature): +++; Binding of LED protein to M. lysodiektikus cells (in words) [5]: binds; Binding of LED protein to M. lysodiektikus cells (in words) ([5]; listed as LED protein): able to bind; Result: LED band intensity on an SDS gel (supernatant after incubation) ([5]; Suspension: M. lysodeiktikus, 30 minutes room temperature): +; Result: LED band intensity on an SDS gel ([5]; Suspension: None (untreated LED sample, reference for both suspensions)): +++
